Measured values reported in PMC2120123.

Key:
Test in all cases: radioligand binding
[1] = target: CD45Δ826/CD44(Reg.I) fusion protein (mouse) (UniProt P06800)
[2] = target: CD44(GP85)Δ320, purified from transfected COS cells (mouse)
[3] = target: CD44(GP85)Δ355, purified from transfected COS cells (mouse)

- Ankyrin binding (cpm) [1]: 1160 cpm
- Kd [2]: 2.6 nM
- Kd [3]: 1 nM
Substance: Erythrocyte ankyrin (from UniProt P16157 1-1881) (natural protein)
